Laboratory results reported in patent US20160136234A1.

Experiments:
Assay in all cases: cell-based or functional assay
DYRK2 (h) (human) = DYRK2 (h) (human) (UniProt Q92630)
Rsk2 (h) (human) = Rsk2 (h) (human) (UniProt P51812)
ROCK-II (h) (human) = ROCK-II (h) (human) (UniProt O75116)
Met(Y1248C) (h) (human) = Met(Y1248C) (h) (human) (UniProt P08581)
MST2 (h) (human) = biological target: T1, MST2 (h) (human) (UniProt Q13188)
T1 sequence (looked up): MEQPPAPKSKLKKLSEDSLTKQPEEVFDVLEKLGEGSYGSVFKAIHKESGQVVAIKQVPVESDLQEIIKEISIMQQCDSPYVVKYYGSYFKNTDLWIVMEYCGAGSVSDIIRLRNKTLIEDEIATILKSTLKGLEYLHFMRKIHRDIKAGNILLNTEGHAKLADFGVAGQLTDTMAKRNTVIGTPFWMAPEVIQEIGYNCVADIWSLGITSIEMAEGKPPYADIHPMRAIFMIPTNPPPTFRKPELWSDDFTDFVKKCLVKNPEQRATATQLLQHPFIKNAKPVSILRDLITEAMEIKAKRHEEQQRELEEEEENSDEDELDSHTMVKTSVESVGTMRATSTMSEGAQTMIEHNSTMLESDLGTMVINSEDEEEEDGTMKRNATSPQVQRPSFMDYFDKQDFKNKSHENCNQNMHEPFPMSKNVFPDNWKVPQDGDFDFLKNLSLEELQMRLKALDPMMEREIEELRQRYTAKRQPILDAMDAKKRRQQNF

HIPK2 (h) (human) = HIPK2 (h) (human) (UniProt Q9H2X6)
[1] = biological target: IGF-1R (h), activated (human) (UniProt P08069)
VRK2 (h) (human) = VRK2 (h) (human) (UniProt Q86Y07)
PKBα (h) (human) = PKBα (h) (human) (UniProt P31749)
CaMKIδ (h) (human) = CaMKIδ (h) (human) (UniProt Q8IU85)
NLK (h) (human) = biological target: T2, NLK (h) (human) (UniProt Q9UBE8)
T2 sequence (looked up): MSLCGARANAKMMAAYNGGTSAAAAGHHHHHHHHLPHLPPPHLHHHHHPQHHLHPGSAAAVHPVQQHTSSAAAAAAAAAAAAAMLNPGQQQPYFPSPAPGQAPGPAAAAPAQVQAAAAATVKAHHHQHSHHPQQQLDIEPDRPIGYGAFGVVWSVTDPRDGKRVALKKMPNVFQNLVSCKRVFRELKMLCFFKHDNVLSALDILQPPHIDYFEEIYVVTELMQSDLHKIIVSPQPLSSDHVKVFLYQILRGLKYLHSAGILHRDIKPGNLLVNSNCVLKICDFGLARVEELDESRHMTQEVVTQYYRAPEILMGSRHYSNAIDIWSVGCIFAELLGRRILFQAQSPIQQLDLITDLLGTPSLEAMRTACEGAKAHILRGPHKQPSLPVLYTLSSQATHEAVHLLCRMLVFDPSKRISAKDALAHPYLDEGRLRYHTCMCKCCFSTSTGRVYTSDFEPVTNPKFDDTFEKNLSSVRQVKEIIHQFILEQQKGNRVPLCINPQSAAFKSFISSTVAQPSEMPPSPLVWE

HIPK3 (h) (human) = HIPK3 (h) (human) (UniProt Q9H422)
Flt1 (h) (human) = biological target: T3, Flt1 (h) (human) (UniProt P17948)
T3 sequence (looked up): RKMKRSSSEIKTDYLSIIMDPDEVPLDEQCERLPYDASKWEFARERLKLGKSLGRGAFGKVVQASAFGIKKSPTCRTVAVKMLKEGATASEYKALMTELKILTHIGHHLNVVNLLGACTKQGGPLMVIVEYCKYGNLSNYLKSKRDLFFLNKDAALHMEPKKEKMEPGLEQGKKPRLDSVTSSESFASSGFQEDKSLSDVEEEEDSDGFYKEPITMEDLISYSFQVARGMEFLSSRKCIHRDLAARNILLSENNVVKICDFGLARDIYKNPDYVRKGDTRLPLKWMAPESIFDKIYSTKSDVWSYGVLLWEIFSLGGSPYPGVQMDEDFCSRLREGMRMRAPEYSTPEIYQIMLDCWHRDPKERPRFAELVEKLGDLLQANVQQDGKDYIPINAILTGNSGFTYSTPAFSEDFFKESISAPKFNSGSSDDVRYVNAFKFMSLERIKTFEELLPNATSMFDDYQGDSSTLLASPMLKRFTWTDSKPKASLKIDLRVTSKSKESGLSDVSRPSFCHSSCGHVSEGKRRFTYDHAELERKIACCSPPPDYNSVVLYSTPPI

IR (h) (human) = IR (h) (human) (UniProt P06213)
Ret (V804L) (h) (human) = biological target: T4, Ret (V804L) (h) (human) (UniProt P07949)
T4 sequence (looked up): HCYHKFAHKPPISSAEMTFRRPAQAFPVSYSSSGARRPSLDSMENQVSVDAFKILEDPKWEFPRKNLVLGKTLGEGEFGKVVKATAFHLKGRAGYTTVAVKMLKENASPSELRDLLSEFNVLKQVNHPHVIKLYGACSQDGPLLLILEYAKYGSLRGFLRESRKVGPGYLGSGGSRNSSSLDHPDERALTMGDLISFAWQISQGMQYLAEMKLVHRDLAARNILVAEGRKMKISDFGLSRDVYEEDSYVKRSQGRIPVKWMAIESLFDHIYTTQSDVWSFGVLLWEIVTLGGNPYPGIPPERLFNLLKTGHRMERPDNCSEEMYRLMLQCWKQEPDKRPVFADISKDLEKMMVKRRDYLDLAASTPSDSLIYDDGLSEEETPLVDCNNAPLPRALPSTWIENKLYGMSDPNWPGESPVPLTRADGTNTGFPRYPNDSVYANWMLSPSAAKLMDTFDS

Rsk2 (h) (human), sequence (P51812 whole entry): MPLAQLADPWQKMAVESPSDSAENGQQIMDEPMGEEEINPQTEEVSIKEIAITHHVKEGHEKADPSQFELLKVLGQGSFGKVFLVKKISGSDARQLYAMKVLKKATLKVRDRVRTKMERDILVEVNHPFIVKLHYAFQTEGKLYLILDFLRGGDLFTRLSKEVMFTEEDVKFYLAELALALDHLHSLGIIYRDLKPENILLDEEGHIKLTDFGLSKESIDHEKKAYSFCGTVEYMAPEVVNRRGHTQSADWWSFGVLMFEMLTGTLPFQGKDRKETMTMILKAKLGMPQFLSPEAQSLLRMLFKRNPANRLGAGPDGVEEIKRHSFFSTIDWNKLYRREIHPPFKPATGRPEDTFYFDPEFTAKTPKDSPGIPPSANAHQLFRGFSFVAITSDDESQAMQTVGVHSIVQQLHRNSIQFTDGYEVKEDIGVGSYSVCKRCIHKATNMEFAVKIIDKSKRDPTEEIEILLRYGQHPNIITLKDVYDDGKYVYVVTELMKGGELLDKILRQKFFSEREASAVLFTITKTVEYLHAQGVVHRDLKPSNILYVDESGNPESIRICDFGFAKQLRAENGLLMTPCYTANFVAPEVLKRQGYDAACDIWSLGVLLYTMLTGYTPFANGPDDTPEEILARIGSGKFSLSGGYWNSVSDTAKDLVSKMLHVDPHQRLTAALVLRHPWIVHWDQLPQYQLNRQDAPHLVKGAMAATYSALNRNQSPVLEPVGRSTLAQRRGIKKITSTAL
PKBα (h) (human), sequence (P31749 whole entry): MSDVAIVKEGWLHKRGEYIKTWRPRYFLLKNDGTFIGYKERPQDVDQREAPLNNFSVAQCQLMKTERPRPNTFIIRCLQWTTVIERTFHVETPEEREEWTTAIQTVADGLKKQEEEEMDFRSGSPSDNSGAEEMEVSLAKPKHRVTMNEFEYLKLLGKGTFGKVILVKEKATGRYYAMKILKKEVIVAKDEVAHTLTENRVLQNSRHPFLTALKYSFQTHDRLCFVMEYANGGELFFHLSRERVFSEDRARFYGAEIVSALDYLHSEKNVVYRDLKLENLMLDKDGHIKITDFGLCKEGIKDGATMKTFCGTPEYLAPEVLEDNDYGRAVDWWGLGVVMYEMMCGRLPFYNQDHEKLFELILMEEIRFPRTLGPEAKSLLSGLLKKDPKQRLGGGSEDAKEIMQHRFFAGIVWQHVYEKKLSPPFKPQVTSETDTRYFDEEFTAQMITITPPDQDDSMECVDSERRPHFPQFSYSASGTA
IGF-1R (h), activated (human), sequence (P08069 959-1367 limits assumed): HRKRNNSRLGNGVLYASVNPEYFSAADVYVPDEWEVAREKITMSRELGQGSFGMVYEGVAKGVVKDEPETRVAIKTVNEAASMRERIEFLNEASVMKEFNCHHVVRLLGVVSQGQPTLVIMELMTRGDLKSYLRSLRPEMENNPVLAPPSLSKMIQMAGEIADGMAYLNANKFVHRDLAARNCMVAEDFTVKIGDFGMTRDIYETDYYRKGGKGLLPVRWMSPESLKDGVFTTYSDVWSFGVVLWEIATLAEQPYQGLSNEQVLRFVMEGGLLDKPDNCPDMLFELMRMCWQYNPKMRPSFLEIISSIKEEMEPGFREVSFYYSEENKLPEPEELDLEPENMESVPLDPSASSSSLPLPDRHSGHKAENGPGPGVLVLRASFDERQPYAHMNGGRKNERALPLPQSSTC
VRK2 (h) (human), sequence (Q86Y07 whole entry): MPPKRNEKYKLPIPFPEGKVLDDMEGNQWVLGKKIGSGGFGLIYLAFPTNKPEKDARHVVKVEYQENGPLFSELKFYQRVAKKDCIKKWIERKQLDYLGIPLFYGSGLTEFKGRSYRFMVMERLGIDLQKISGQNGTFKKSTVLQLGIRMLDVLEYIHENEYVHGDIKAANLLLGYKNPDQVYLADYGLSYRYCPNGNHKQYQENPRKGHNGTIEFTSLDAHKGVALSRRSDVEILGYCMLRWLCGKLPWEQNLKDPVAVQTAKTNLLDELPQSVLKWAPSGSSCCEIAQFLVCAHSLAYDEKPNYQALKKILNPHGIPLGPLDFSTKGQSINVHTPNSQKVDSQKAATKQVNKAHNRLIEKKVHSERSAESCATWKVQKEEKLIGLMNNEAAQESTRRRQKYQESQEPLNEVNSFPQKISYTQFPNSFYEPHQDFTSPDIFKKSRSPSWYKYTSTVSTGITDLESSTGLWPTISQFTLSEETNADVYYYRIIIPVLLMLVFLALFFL
IR (h) (human), sequence (P06213 1005-1310 limits assumed): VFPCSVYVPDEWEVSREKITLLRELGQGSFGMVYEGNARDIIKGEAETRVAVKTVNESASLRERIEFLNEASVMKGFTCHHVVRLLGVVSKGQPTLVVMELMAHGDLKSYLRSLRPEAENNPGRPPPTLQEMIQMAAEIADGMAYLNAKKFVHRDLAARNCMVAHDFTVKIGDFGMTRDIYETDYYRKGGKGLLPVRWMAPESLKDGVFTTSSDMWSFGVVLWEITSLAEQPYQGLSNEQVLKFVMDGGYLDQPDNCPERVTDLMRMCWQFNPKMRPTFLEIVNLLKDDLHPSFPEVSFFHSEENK

With MMI-0300 (peptide) as the substance, how does the % activity at 100 µM (DYRK2 (h) (human)) read?
The % activity at 100 µM was 155%.

What about the % activity at 100 µM (Rsk2 (h) (human)) of the same substance?
The % activity at 100 µM was 51%.

What about the % activity at 100 µM (ROCK-II (h) (human)) of the same substance?
Its % activity at 100 µM is 74%.

What about the % activity at 100 µM (Met(Y1248C) (h) (human)) of the same substance?
Its % activity at 100 µM is 84%.

What about the % activity at 100 µM (MST2 (h) (human)) of the same substance?
Its % activity at 100 µM is 19%.

And the % activity at 100 µM (HIPK2 (h) (human))?
Its % activity at 100 µM is 73%.

What about the % activity at 100 µM [1] of the same substance?
Its % activity at 100 µM is 80%.

And the % activity at 100 µM (VRK2 (h) (human))?
Its % activity at 100 µM is 161%.

What about the % activity at 100 µM (PKBα (h) (human)) of the same substance?
Its % activity at 100 µM is 57%.

And the % activity at 100 µM (CaMKIδ (h) (human))?
Its % activity at 100 µM is 10%.

What about the % activity at 100 µM (NLK (h) (human)) of the same substance?
Its % activity at 100 µM is 87%.

And the % activity at 100 µM (HIPK3 (h) (human))?
The % activity at 100 µM was 93%.

And the % activity at 100 µM (Flt1 (h) (human))?
Its % activity at 100 µM is 69%.

And the % activity at 100 µM (IR (h) (human))?
The % activity at 100 µM was 96%.

What about the % activity at 100 µM (Ret (V804L) (h) (human)) of the same substance?
Its % activity at 100 µM is 79%.
